Measured values as given in patent US20180273622A1 (APTEVO RESEARCH AND DEVELOPMENT, published 2018).
Changes are numbered by the printed parent chain.

B1: Fc H10L5 (TSC324) (Fc fusion)
chain: EPKSSDKTHTCPPCPAPEAAGAPSVFLFPPKPKDTLMISRTPEVTCVVVDVSHEDPEVKFNWYVDGVEVHNAKTKPREEQYNSTYRVVSVLTVLHQDWLNGKAYACAVSNKALPAPIEKTISKAKGQPREPQVYTLPPSRDELTKNQVSLTCLVKGFYPSDIAVEWESNGQPENNYKTTPPVLDSDGSFFLYSKLTVDKSRWQQGNVFSCSVMHEALHNHYTQKSLSLSPGQRHNNSSLNTGTQMAGHSPNSQVQLVQSGAEVKKPGSSVKVSCKASGGTFSRSTMHWVRQAPGQGLEWMGYINPSSAYTNYNQKFKDRVTITADKSTSTAYMELSSLRSEDTAVYYCARPQVHYDYNGFPYWGQGTLVTVSSGGGGSGGGGSGGGGSGGGGSDIQMTQSPSSLSASVGDRVTITCSASSSVSYMNWYQQKPGKAPKLLIYDSSKLASGVPSRFSGSGSGTDFTLTISSLQPEDFATYYCQQWSRNPPTFGGGTKVEIKRSSS
notes: Fc anti-CD3 scFv format with H75 linker; The entry is the mature protein
B2: Fc H10L8 (TSC342) (Fc fusion)
chain: B1 chain with S403T, L438R, L439W, D462E, E473D
notes: Fc anti-CD3 scFv format; The entry is the mature protein
B3: Fc H10L6 (TSC340) (Fc fusion)
chain: B1 chain with L438R, L439W
notes: as for B2
B4: Fc H10L7 (TSC341) (Fc fusion)
chain: EPKSSDKTHTCPPCPAPEAAGAPSVFLFPPKPKDTLMISRTPEVTCVVVDVSHEDPEVKFNWYVDGVEVHNAKTKPREEQYNSTYRVVSVLTVLHQDWLNGKAYACAVSNKALPAPIEKTISKAKGQPREPQVYTLPPSRDELTKNQVSLTCLVKGFYPSDIAVEWESNGQPENNYKTTPPVLDSDGSFFLYSKLTVDKSRWQQGNVFSCSVMHEALHNHYTQKSLSLSPGQRHNNSSLNTGTQMAGHSPNSQVQLVQSGAEVKKPGSSVKVSCKASGGTFSRSTMHWVRQAPGQGLEWMGYINPSSAYTNYNQKFKDRVTITADKSTSTAYMELSSLRSEDTAVYYCARPQVHYDYNGFPYWGQGTLVTVSSGGGGSGGGGSGGGGSGGGGSEIVLTQSPATLSLSPGERATLSCSASSSVSYMNWYQQKPGLAPRRWIYDSSKLASGIPDRFSGSGSGTDFTLTISRLEPEDFAVYYCQQWSRNPPTFGGGTKVEIKRSSS
notes: as for B2

Legend:
human CD3 [1] = molecular target: T1, human CD3 (human, UniProt P07766 23-207; P09693 23-182; P04234 22-171; P20963 22-164); test: flow cytometry on Jurkat T-cells, anti-human IgG detection
T1 construct: whole, on cells; It was presented on the CD3+ Jurkat T-cell line, on a Jurkat subclone with higher CD3 expression, or on human T-cells; also called CD3 on Jurkat T-cells; CD3 on human T-cells
Experimental: Binding studies were performed by standard flow cytometry-based staining procedures using the CD3⁺ Jurkat T-cell line. All labeling and washes were performed in U-bottom 96-well plates in saline buffer with 3% BSA and 2 mM EDTA. Jurkat cells were plated at 200,000 cells per well and incubated with a range of 0.1 nM to 200 nM concentrations of test molecules in 50 μL volume/well, for 30 minutes on ice. Cells were washed three times then incubated for another 30 minutes on ice with fluorescently-labeled minimum cross reactive secondary polyclonal antibody, F(ab′)² goat anti-human IgG, (Jackson ImmunoResearch Laboratories) and the viability dye 7-AAD. The cells were then washed twice, and the samples acquired in a BD LSRII flow cytometer. The sample files were analyzed using FlowJo software; the mean fluorescence intensity (MFI) of the live population of Jurkat cells in each well was calculated after gating on live cells (forward vs. side scatter, then 7-AAD cells).

human CD3 [2] = molecular target: T1, human CD3; test: flow cytometry on a Jurkat subclone with higher CD3 expression (FIG. 2)

T1 sequence (P07766 23-207, chain 1 of 4): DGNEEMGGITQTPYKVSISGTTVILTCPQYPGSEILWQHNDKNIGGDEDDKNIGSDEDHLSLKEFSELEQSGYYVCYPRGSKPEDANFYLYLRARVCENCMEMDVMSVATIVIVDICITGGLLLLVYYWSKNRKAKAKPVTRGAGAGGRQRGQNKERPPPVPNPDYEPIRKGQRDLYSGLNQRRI
T1 sequence (P09693 23-182, chain 2 of 4): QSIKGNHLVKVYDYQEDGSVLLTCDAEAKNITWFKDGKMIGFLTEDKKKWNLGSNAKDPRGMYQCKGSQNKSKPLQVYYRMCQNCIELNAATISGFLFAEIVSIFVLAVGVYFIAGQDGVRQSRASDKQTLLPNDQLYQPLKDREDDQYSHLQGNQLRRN
T1 sequence (P04234 22-171, chain 3 of 4): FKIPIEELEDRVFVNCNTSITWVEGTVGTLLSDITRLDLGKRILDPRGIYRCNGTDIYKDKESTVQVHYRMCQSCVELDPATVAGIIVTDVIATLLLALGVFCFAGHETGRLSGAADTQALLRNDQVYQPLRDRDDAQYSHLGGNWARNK
T1 sequence (P20963 22-164, chain 4 of 4): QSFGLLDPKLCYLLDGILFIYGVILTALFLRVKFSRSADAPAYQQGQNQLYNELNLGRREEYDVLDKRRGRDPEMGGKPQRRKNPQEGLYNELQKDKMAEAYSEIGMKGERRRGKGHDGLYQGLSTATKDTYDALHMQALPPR

Binder	EC50 (human CD3 [1])	fold increase in the EC50 of binding compared to TSC312 (human CD3 [1])	fold higher EC50 than TSC312 (human CD3 [2])
B1	3.6 nM	2 fold	–
B2	–	–	2 fold
B3	–	–	2 fold
B4	–	–	2 fold
